Paper PMC10713552 (Communications Biology, 2023)

Assays:
[1] = molecular target: D614G-Hexapro (WT) spike ectodomain (SARS-CoV-2 Wuhan-Hu-1 D614G, D614G); experiment: BLI
[2] = molecular target: Omicron BA.1 spike protein ectodomain (BLI) (SARS-CoV-2 Omicron BA.1, strain); experiment: BLI

Row | Binder | Kd [1] [nM] | koff [1] [s⁻¹] | kon [1] [M⁻¹ s⁻¹] | Kd [2] [nM] | koff [2] [s⁻¹] | kon [2] [M⁻¹ s⁻¹]
1 | 0370-N3_T65R (antibody, V domains shown, source: Expi293F, transfected) VH: QVQLQQWGPGLVNPSETLSLTCSVSGGSFATENYYWSWIRQHPGEGLEWIGNIYFSGNRYYNPSLNNRFTISFDTSKNHLSLKLPSVTAADTAVYYCARGTIYFDRSGYRRVDPFHIWGQGTMVIVSS VL: not shown | 111 | 3.63e-05 | 328 | 12.1 | 0.000266 | 22000
2 | 0340-MN3_T65E (antibody, V domains shown, source: Expi293F, transfected) VH: QVQLQQWGPGLVNPSETLSLTCSVSGGSFATENYYWSWIRQHPGEGLEWIGNIYFSGNEYYNPSLNNRFTISFDTSKNHLSLKLPSVTAADTAVYYCARGTIYFDMSGYRRVDPFHIWGQGTMVIVSS VL: not shown | 371 | 7.27e-05 | 196 | 48.2 | 0.0021 | 43700
3 | 0327-LN3_T65L (antibody, V domains shown, source: Expi293F, transfected) VH: QVQLQQWGPGLVNPSETLSLTCSVSGGSFATENYYWSWIRQHPGEGLEWIGNIYFSGNLYYNPSLNNRFTISFDTSKNHLSLKLPSVTAADTAVYYCARGTIYFDLSGYRRVDPFHIWGQGTMVIVSS VL: not shown | 183 | 0.00127 | 6950 | 58.6 | 0.00147 | 25100
4 | 0360-N3_T65F (antibody, V domains shown, source: Expi293F, transfected) VH: QVQLQQWGPGLVNPSETLSLTCSVSGGSFATENYYWSWIRQHPGEGLEWIGNIYFSGNFYYNPSLNNRFTISFDTSKNHLSLKLPSVTAADTAVYYCARGTIYFDRSGYRRVDPFHIWGQGTMVIVSS VL: not shown | 355 | 0.000217 | 612 | 18.5 | 0.000659 | 35700
5 | 0341-MN3_T65F (antibody, V domains shown, source: Expi293F, transfected) VH: QVQLQQWGPGLVNPSETLSLTCSVSGGSFATENYYWSWIRQHPGEGLEWIGNIYFSGNFYYNPSLNNRFTISFDTSKNHLSLKLPSVTAADTAVYYCARGTIYFDMSGYRRVDPFHIWGQGTMVIVSS VL: not shown | 146 | 0.000179 | 1230 | 41.2 | 0.00171 | 41500
6 | 0312-IN3_T65Q (antibody, V domains shown, source: Expi293F, transfected) VH: QVQLQQWGPGLVNPSETLSLTCSVSGGSFATENYYWSWIRQHPGEGLEWIGNIYFSGNQYYNPSLNNRFTISFDTSKNHLSLKLPSVTAADTAVYYCARGTIYFDISGYRRVDPFHIWGQGTMVIVSS VL: not shown | 2.23 | 0.000511 | 229000 | 13.2 | 0.000887 | 67300
7 | 0330-LN3_T65P (antibody, V domains shown, source: Expi293F, transfected) VH: QVQLQQWGPGLVNPSETLSLTCSVSGGSFATENYYWSWIRQHPGEGLEWIGNIYFSGNPYYNPSLNNRFTISFDTSKNHLSLKLPSVTAADTAVYYCARGTIYFDLSGYRRVDPFHIWGQGTMVIVSS VL: not shown | 686 | 0.00219 | 3190 | 32.6 | 0.00229 | 70200
8 | 0388-YN3_T65Q (antibody, V domains shown, source: Expi293F, transfected) VH: QVQLQQWGPGLVNPSETLSLTCSVSGGSFATENYYWSWIRQHPGEGLEWIGNIYFSGNQYYNPSLNNRFTISFDTSKNHLSLKLPSVTAADTAVYYCARGTIYFDYSGYRRVDPFHIWGQGTMVIVSS VL: not shown | 1910 | 0.00186 | 973 | 37.7 | 0.00058 | 15400
9 | 0377-YN3_T65D (antibody, V domains shown, source: Expi293F, transfected) VH: QVQLQQWGPGLVNPSETLSLTCSVSGGSFATENYYWSWIRQHPGEGLEWIGNIYFSGNDYYNPSLNNRFTISFDTSKNHLSLKLPSVTAADTAVYYCARGTIYFDYSGYRRVDPFHIWGQGTMVIVSS VL: not shown | 634 | 0.000153 | 242 | 13.4 | 0.000269 | 20100
10 | 0309-IN3_T65M (antibody, V domains shown, source: Expi293F, transfected) VH: QVQLQQWGPGLVNPSETLSLTCSVSGGSFATENYYWSWIRQHPGEGLEWIGNIYFSGNMYYNPSLNNRFTISFDTSKNHLSLKLPSVTAADTAVYYCARGTIYFDISGYRRVDPFHIWGQGTMVIVSS VL: not shown | – | – | 184 | 15.7 | 0.00102 | 64800
11 | 0335-LN3_T65V (antibody, V domains shown, source: Expi293F, transfected) VH: QVQLQQWGPGLVNPSETLSLTCSVSGGSFATENYYWSWIRQHPGEGLEWIGNIYFSGNVYYNPSLNNRFTISFDTSKNHLSLKLPSVTAADTAVYYCARGTIYFDLSGYRRVDPFHIWGQGTMVIVSS VL: not shown | 135 | 0.000502 | 3730 | 49.2 | 0.00196 | 39700
12 | 0345-MN3_T65K (antibody, V domains shown, source: Expi293F, transfected) VH: QVQLQQWGPGLVNPSETLSLTCSVSGGSFATENYYWSWIRQHPGEGLEWIGNIYFSGNKYYNPSLNNRFTISFDTSKNHLSLKLPSVTAADTAVYYCARGTIYFDMSGYRRVDPFHIWGQGTMVIVSS VL: not shown | 346 | 7.97e-05 | 230 | 41.4 | 0.00172 | 41600
13 | 0374-N3_T65W (antibody, V domains shown, source: Expi293F, transfected) VH: QVQLQQWGPGLVNPSETLSLTCSVSGGSFATENYYWSWIRQHPGEGLEWIGNIYFSGNWYYNPSLNNRFTISFDTSKNHLSLKLPSVTAADTAVYYCARGTIYFDRSGYRRVDPFHIWGQGTMVIVSS VL: not shown | – | – | 190 | 42.5 | 0.000694 | 16300
14 | 0317-IN3_T65W (antibody, V domains shown, source: Expi293F, transfected) VH: QVQLQQWGPGLVNPSETLSLTCSVSGGSFATENYYWSWIRQHPGEGLEWIGNIYFSGNWYYNPSLNNRFTISFDTSKNHLSLKLPSVTAADTAVYYCARGTIYFDISGYRRVDPFHIWGQGTMVIVSS VL: not shown | 1.41 | 0.000282 | 199000 | 16.3 | 0.000834 | 51200
15 | 0318-IN3_T65Y (antibody, V domains shown, source: Expi293F, transfected) VH: QVQLQQWGPGLVNPSETLSLTCSVSGGSFATENYYWSWIRQHPGEGLEWIGNIYFSGNYYYNPSLNNRFTISFDTSKNHLSLKLPSVTAADTAVYYCARGTIYFDISGYRRVDPFHIWGQGTMVIVSS VL: not shown | 1.07 | 0.000222 | 207000 | 29.4 | 0.00117 | 39800
16 | 0307-IN3_T65K (antibody, V domains shown, source: Expi293F, transfected) VH: QVQLQQWGPGLVNPSETLSLTCSVSGGSFATENYYWSWIRQHPGEGLEWIGNIYFSGNKYYNPSLNNRFTISFDTSKNHLSLKLPSVTAADTAVYYCARGTIYFDISGYRRVDPFHIWGQGTMVIVSS VL: not shown | 0.208 | 5.6e-05 | 269000 | 31.7 | 0.000872 | 27500
17 | 0331-LN3_T65Q (antibody, V domains shown, source: Expi293F, transfected) VH: QVQLQQWGPGLVNPSETLSLTCSVSGGSFATENYYWSWIRQHPGEGLEWIGNIYFSGNQYYNPSLNNRFTISFDTSKNHLSLKLPSVTAADTAVYYCARGTIYFDLSGYRRVDPFHIWGQGTMVIVSS VL: not shown | 1.18 | 0.00083 | 703000 | 38.2 | 0.00223 | 58400
18 | 0347-MN3_T65M (antibody, V domains shown, source: Expi293F, transfected) VH: QVQLQQWGPGLVNPSETLSLTCSVSGGSFATENYYWSWIRQHPGEGLEWIGNIYFSGNMYYNPSLNNRFTISFDTSKNHLSLKLPSVTAADTAVYYCARGTIYFDMSGYRRVDPFHIWGQGTMVIVSS VL: not shown | 880 | 0.000233 | 264 | 39.7 | 0.00209 | 52700
19 | 0373-N3_T65V (antibody, V domains shown, source: Expi293F, transfected) VH: QVQLQQWGPGLVNPSETLSLTCSVSGGSFATENYYWSWIRQHPGEGLEWIGNIYFSGNVYYNPSLNNRFTISFDTSKNHLSLKLPSVTAADTAVYYCARGTIYFDRSGYRRVDPFHIWGQGTMVIVSS VL: not shown | 324 | 0.000461 | 1420 | 16 | 0.000565 | 35200
20 | 0350-MN3_T65Q (antibody, V domains shown, source: Expi293F, transfected) VH: QVQLQQWGPGLVNPSETLSLTCSVSGGSFATENYYWSWIRQHPGEGLEWIGNIYFSGNQYYNPSLNNRFTISFDTSKNHLSLKLPSVTAADTAVYYCARGTIYFDMSGYRRVDPFHIWGQGTMVIVSS VL: not shown | 643 | 0.00015 | 233 | 38.5 | 0.000871 | 22700
21 | 0383-YN3_T65K (antibody, V domains shown, source: Expi293F, transfected) VH: QVQLQQWGPGLVNPSETLSLTCSVSGGSFATENYYWSWIRQHPGEGLEWIGNIYFSGNKYYNPSLNNRFTISFDTSKNHLSLKLPSVTAADTAVYYCARGTIYFDYSGYRRVDPFHIWGQGTMVIVSS VL: not shown | 682 | 0.000178 | 261 | 50.6 | 0.00099 | 19600
22 | 0319-LN3_T65A (antibody, V domains shown, source: Expi293F, transfected) VH: QVQLQQWGPGLVNPSETLSLTCSVSGGSFATENYYWSWIRQHPGEGLEWIGNIYFSGNAYYNPSLNNRFTISFDTSKNHLSLKLPSVTAADTAVYYCARGTIYFDLSGYRRVDPFHIWGQGTMVIVSS VL: not shown | 244 | 0.000836 | 3430 | 59.6 | 0.00229 | 38400
23 | 0348-MN3_T65N (antibody, V domains shown, source: Expi293F, transfected) VH: QVQLQQWGPGLVNPSETLSLTCSVSGGSFATENYYWSWIRQHPGEGLEWIGNIYFSGNNYYNPSLNNRFTISFDTSKNHLSLKLPSVTAADTAVYYCARGTIYFDMSGYRRVDPFHIWGQGTMVIVSS VL: not shown | 130 | 9.93e-05 | 765 | 43 | 0.00196 | 45700
24 | 0338-MN3_T65A (antibody, V domains shown, source: Expi293F, transfected) VH: QVQLQQWGPGLVNPSETLSLTCSVSGGSFATENYYWSWIRQHPGEGLEWIGNIYFSGNAYYNPSLNNRFTISFDTSKNHLSLKLPSVTAADTAVYYCARGTIYFDMSGYRRVDPFHIWGQGTMVIVSS VL: not shown | 373 | 0.000121 | 325 | 25 | 0.00154 | 61800
